Test results taken from patent US20240360194A1, “New Peptides as Potent and Selective GIP Receptor Agonists” (Sanofi, priority 2021, published 2024).
Numbered stars: 1 amine (or outer) side, 2 acyl side, 3 side chain; on linkers, the order of the positions; unused ones are H or OH. Square brackets hold non-standard residues; d marks the D form. Side chains are listed from the residue outwards. Ends that are not written are not given here. * marks the point of attachment. C18 diacid = O=C(O)CCCCCCCCCCCCCCCCC(=O)*; γGlu = O=C(O)[C@H](CCC(=O)[*:2])N[*:1]; AEEA = NCCOCCOCC(=O)O; Aib = CC(C)(N)C(=O)O

T1: human GIP receptor (human, UniProt P48546 22-466)
T1 sequence (looked up): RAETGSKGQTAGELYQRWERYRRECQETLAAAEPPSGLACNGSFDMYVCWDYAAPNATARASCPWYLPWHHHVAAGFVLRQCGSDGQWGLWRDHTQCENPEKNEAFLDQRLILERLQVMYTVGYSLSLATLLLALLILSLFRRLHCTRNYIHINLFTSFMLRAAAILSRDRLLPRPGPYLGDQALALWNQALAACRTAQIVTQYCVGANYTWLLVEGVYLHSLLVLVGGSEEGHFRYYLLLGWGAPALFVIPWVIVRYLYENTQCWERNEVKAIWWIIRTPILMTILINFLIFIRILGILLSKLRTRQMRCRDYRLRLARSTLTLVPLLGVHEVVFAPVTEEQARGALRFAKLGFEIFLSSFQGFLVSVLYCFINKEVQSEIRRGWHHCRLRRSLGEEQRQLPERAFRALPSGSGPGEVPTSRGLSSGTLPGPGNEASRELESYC


Legend:
human GIP receptor [1] = molecular target: T1, human GIP receptor; experiment: cell-based or functional assay
human GLP-1 receptor [2] = molecular target: T2, human GLP-1 receptor (human, UniProt P43220 24-463); experiment: cell-based or functional assay
human GIP receptor [3] = molecular target: T1, human GIP receptor; experiment: cell-based or functional assay; remark: listed apart in the source
human GLP-1 receptor [4] = molecular target: T2, human GLP-1 receptor; experiment: displacement of [125I]GLP-1 from HEK-293 membranes expressing hGLP-1R (SPA beads)

Binder | EC50 hGIPR 0% HSA (cAMP, HEK-293) (human GIP receptor [1]) [nM] | EC50 hGIPR 0.1% BSA (cAMP, HEK-293) (human GIP receptor [1]) [nM] | EC50 hGLP-1R 0.1% BSA (cAMP, HEK-293) (human GLP-1 receptor [2]) [nM] | hGIPR EC50 (cAMP, human adipocytes) (human GIP receptor [3]) [nM] | hGIPR Emax (cAMP, human adipocytes) (human GIP receptor [3]) [%] | IC50 (human GLP-1 receptor [4]) [nM]
Y[Aib]EGTFISDLSI[Aib]LEEQK([AEEA-AEEA-γGlu-C18 diacid])Q[Aib]EFIEWLLAQGPSSGAPPPS-NH2 (N-terminus assumed; SMILES CC[C@H](C)[C@H](NC(=O)[C@H](Cc1ccccc1)NC(=O)[C@H](CCC(=O)O)NC(=O)C(C)(C)NC(=O)[C@H](CCC(N)=O)NC(=O)[C@H](CCCCNC(=O)COCCOCCNC(=O)COCCOCCNC(=O)CC[C@H](NC(=O)CCCCCCCCCCCCCCCCC(=O)O)C(=O)O)NC(=O)[C@H](CCC(N)=O)NC(=O)[C@H](CCC(=O)O)NC(=O)[C@H](CCC(=O)O)NC(=O)[C@H](CC(C)C)NC(=O)C(C)(C)NC(=O)[C@@H](NC(=O)[C@H](CO)NC(=O)[C@H](CC(C)C)NC(=O)[C@H](CC(=O)O)NC(=O)[C@H](CO)NC(=O)[C@@H](NC(=O)[C@H](Cc1ccccc1)NC(=O)[C@@H](NC(=O)CNC(=O)[C@H](CCC(=O)O)NC(=O)C(C)(C)NC(=O)[C@@H](N)Cc1ccc(O)cc1)[C@@H](C)O)[C@@H](C)CC)[C@@H](C)CC)C(=O)N[C@@H](CCC(=O)O)C(=O)N[C@@H](Cc1c[nH]c2ccccc12)C(=O)N[C@@H](CC(C)C)C(=O)N[C@@H](CC(C)C)C(=O)N[C@@H](C)C(=O)N[C@@H](CCC(N)=O)C(=O)NCC(=O)N1CCC[C@H]1C(=O)N[C@@H](CO)C(=O)N[C@@H](CO)C(=O)NCC(=O)N[C@@H](C)C(=O)N1CCC[C@H]1C(=O)N1CCC[C@H]1C(=O)N1CCC[C@H]1C(=O)N[C@@H](CO)C(N)=O, Synthetic peptide, 39 residues) [SEQ ID NO: 36] | 0.00012 | 0.0288 | > 10 | 0.3 | 104 | 115
Y[Aib]EGTFISDLSI[Aib]LDRIK([AEEA-AEEA-γGlu-C18 diacid])Q[Aib]EFIEWLLAQGPSSGAPPPS-NH2 (N-terminus assumed; SMILES CC[C@H](C)[C@H](NC(=O)[C@H](CCCNC(=N)N)NC(=O)[C@H](CC(=O)O)NC(=O)[C@H](CC(C)C)NC(=O)C(C)(C)NC(=O)[C@@H](NC(=O)[C@H](CO)NC(=O)[C@H](CC(C)C)NC(=O)[C@H](CC(=O)O)NC(=O)[C@H](CO)NC(=O)[C@@H](NC(=O)[C@H](Cc1ccccc1)NC(=O)[C@@H](NC(=O)CNC(=O)[C@H](CCC(=O)O)NC(=O)C(C)(C)NC(=O)[C@@H](N)Cc1ccc(O)cc1)[C@@H](C)O)[C@@H](C)CC)[C@@H](C)CC)C(=O)N[C@@H](CCCCNC(=O)COCCOCCNC(=O)COCCOCCNC(=O)CC[C@H](NC(=O)CCCCCCCCCCCCCCCCC(=O)O)C(=O)O)C(=O)N[C@@H](CCC(N)=O)C(=O)NC(C)(C)C(=O)N[C@@H](CCC(=O)O)C(=O)N[C@@H](Cc1ccccc1)C(=O)N[C@H](C(=O)N[C@@H](CCC(=O)O)C(=O)N[C@@H](Cc1c[nH]c2ccccc12)C(=O)N[C@@H](CC(C)C)C(=O)N[C@@H](CC(C)C)C(=O)N[C@@H](C)C(=O)N[C@@H](CCC(N)=O)C(=O)NCC(=O)N1CCC[C@H]1C(=O)N[C@@H](CO)C(=O)N[C@@H](CO)C(=O)NCC(=O)N[C@@H](C)C(=O)N1CCC[C@H]1C(=O)N1CCC[C@H]1C(=O)N1CCC[C@H]1C(=O)N[C@@H](CO)C(N)=O)[C@@H](C)CC, Synthetic peptide, 39 residues) [SEQ ID NO: 37] | 0.00015 | 0.0201 | > 10 | 0.5 | 113 | 41
Y[Aib]EGTFISDLSI[Aib]K([AEEA-AEEA-γGlu-C18 diacid])DRIHQ[Aib]EFIEWLLAQRPSSGAPPPS-NH2 (N-terminus assumed; SMILES CC[C@H](C)[C@H](NC(=O)[C@H](CCCNC(=N)N)NC(=O)[C@H](CC(=O)O)NC(=O)[C@H](CCCCNC(=O)COCCOCCNC(=O)COCCOCCNC(=O)CC[C@H](NC(=O)CCCCCCCCCCCCCCCCC(=O)O)C(=O)O)NC(=O)C(C)(C)NC(=O)[C@@H](NC(=O)[C@H](CO)NC(=O)[C@H](CC(C)C)NC(=O)[C@H](CC(=O)O)NC(=O)[C@H](CO)NC(=O)[C@@H](NC(=O)[C@H](Cc1ccccc1)NC(=O)[C@@H](NC(=O)CNC(=O)[C@H](CCC(=O)O)NC(=O)C(C)(C)NC(=O)[C@@H](N)Cc1ccc(O)cc1)[C@@H](C)O)[C@@H](C)CC)[C@@H](C)CC)C(=O)N[C@@H](Cc1c[nH]cn1)C(=O)N[C@@H](CCC(N)=O)C(=O)NC(C)(C)C(=O)N[C@@H](CCC(=O)O)C(=O)N[C@@H](Cc1ccccc1)C(=O)N[C@H](C(=O)N[C@@H](CCC(=O)O)C(=O)N[C@@H](Cc1c[nH]c2ccccc12)C(=O)N[C@@H](CC(C)C)C(=O)N[C@@H](CC(C)C)C(=O)N[C@@H](C)C(=O)N[C@@H](CCC(N)=O)C(=O)N[C@@H](CCCNC(=N)N)C(=O)N1CCC[C@H]1C(=O)N[C@@H](CO)C(=O)N[C@@H](CO)C(=O)NCC(=O)N[C@@H](C)C(=O)N1CCC[C@H]1C(=O)N1CCC[C@H]1C(=O)N1CCC[C@H]1C(=O)N[C@@H](CO)C(N)=O)[C@@H](C)CC, Synthetic peptide, 39 residues (Arg at 30)) [SEQ ID NO: 30] | 0.00048 | 0.011 | > 10 | 0.5 | 138 | 151
